These results are taken from publication PMC8270960, “Native flagellar MS ring is formed by 34 subunits with 23-fold and 11-fold subsymmetries” (Nature Communications, 2021).

Several values for one entry are separate records, joined by “and”; a condition that tells them apart may be missing. Equal values may be shown once.

The target in series [1] is FliG ΔPAA of the C ring of the CW-locked basal body (Salmonella enterica serovar Typhimurium (in TM022)) (UniProt P0A1J9). In words: cryo-EM structure; end-on view cryoEM images of the C ring of purified wild-type (CCW) and CW mutant basal bodies; rotational symmetry of single particles by autocorrelation and Fourier transformation (98 and 75 particles).
Series [2] deals with the molecule itself. As to the kind of experiment: cryo-EM structure; 2D class averages of end-on views of the basal body (rivet) purified from Salmonella HK1003; rotational symmetry by autocorrelation and Fourier transformation; assembly formed in cells, purified as a whole.
Series [3] deals with the molecule itself. As to the kind of experiment: cryo-EM structure; MS ring of full-length FliF (dataset 2, pKOT105); 3D refinement with C1, C11 and C34 symmetry (12, 9.0 and 7.4 Å).
Series [4] deals with the molecule itself. In words: negative-stain EM; MS rings purified from E. coli cells overexpressing mutant variants of FliF, observed by negative staining EM.
Series [5] deals with the molecule itself. In words: cryo-EM structure; rings of FliF_(1-503) and FliF_(1-456) in Buffer S with 0.1% Triton-X100; 3D classification and reconstruction with C1 symmetry.

As to “FliG ΔPAA of the C ring of the CW-locked basal body (from UniProt P0A1J9 1-331) (natural protein)”, the stoichiometry N (commonly the number of molecules, sites or subunits per partner or assembly) in series [1] was 33 -fold to 36 -fold (2×) and 34 -fold.

B1: FliF of the native flagellar basal body (native MS ring) (natural protein)
chain: MSATASTATQPKPLEWLNRLRANPRIPLIVAGSAAVAIVVAMVLWAKTPDYRTLFSNLSDQDGGAIVAQLTQMNIPYRFANGSGAIEVPADKVHELRLRLAQQGLPKGGAVGFELLDQEKFGISQFSEQVNYQRALEGELARTIETLGPVKSARVHLAMPKPSLFVREQKSPSASVTVTLEPGRALDEGQISAVVHLVSSAVAGLPPGNVTLVDQSGHLLTQSNTSGRDLNDAQLKFANDVESRIQRRIEAILSPIVGNGNVHAQVTAQLDFANKEQTEEHYSPNGDASKATLRSRQLNISEQVGAGYPGGVPGALSNQPAPPNEAPIATPPTNQQNAQNTPQTSTSTNSNSAGPRSTQRNETSNYEVDRTIRHTKMNVGDIERLSVAVVVNYKTLADGKPLPLTADQMKQIEDLTREAMGFSDKRGDTLNVVNSPFSAVDNTGGELPFWQQQSFIDQLLAAGRWLLVLVVAWILWRKAVRPQLTRRVEEAKAAQEQAQVRQETEEAVEVRLSKDEQLQQRRANQRLGAEVMSQRIREMSDNDPRVVALVIRQWMSNDHE
notes: source: endogenous, basal body purified from Salmonella HK1003 (sucrose density gradient); copies: 34
Regarding B1, the “stoichiometry N” value in series [2] came out at 34 subunits.

B2: full-length Salmonella FliF (MS ring, dataset 2, from pKOT105) (natural protein)
chain: MSATASTATQPKPLEWLNRLRANPRIPLIVAGSAAVAIVVAMVLWAKTPDYRTLFSNLSDQDGGAIVAQLTQMNIPYRFANGSGAIEVPADKVHELRLRLAQQGLPKGGAVGFELLDQEKFGISQFSEQVNYQRALEGELARTIETLGPVKSARVHLAMPKPSLFVREQKSPSASVTVTLEPGRALDEGQISAVVHLVSSAVAGLPPGNVTLVDQSGHLLTQSNTSGRDLNDAQLKFANDVESRIQRRIEAILSPIVGNGNVHAQVTAQLDFANKEQTEEHYSPNGDASKATLRSRQLNISEQVGAGYPGGVPGALSNQPAPPNEAPIATPPTNQQNAQNTPQTSTSTNSNSAGPRSTQRNETSNYEVDRTIRHTKMNVGDIERLSVAVVVNYKTLADGKPLPLTADQMKQIEDLTREAMGFSDKRGDTLNVVNSPFSAVDNTGGELPFWQQQSFIDQLLAAGRWLLVLVVAWILWRKAVRPQLTRRVEEAKAAQEQAQVRQETEEAVEVRLSKDEQLQQRRANQRLGAEVMSQRIREMSDNDPRVVALVIRQWMSNDHE
notes: also called FliF overexpressed from another construct; FliF ring dataset 2; source: E. coli BL21 (DE3) carrying pKOT105, MS ring purified from the membrane fraction (sucrose gradient, LMNG); copies: 34
For the molecule B2, the “stoichiometry N” value in series [3] is 34 subunits.

B3: FliF(I252R), overexpressed in E. coli (natural protein)
chain: MSATASTATQPKPLEWLNRLRANPRIPLIVAGSAAVAIVVAMVLWAKTPDYRTLFSNLSDQDGGAIVAQLTQMNIPYRFANGSGAIEVPADKVHELRLRLAQQGLPKGGAVGFELLDQEKFGISQFSEQVNYQRALEGELARTIETLGPVKSARVHLAMPKPSLFVREQKSPSASVTVTLEPGRALDEGQISAVVHLVSSAVAGLPPGNVTLVDQSGHLLTQSNTSGRDLNDAQLKFANDVESRIQRRIEARLSPIVGNGNVHAQVTAQLDFANKEQTEEHYSPNGDASKATLRSRQLNISEQVGAGYPGGVPGALSNQPAPPNEAPIATPPTNQQNAQNTPQTSTSTNSNSAGPRSTQRNETSNYEVDRTIRHTKMNVGDIERLSVAVVVNYKTLADGKPLPLTADQMKQIEDLTREAMGFSDKRGDTLNVVNSPFSAVDNTGGELPFWQQQSFIDQLLAAGRWLLVLVVAWILWRKAVRPQLTRRVEEAKAAQEQAQVRQETEEAVEVRLSKDEQLQQRRANQRLGAEVMSQRIREMSDNDPRVVALVIRQWMSNDHE
notes: source: E. coli, overexpressed, MS rings purified
Turning to B3, the binding result in series [4] is listed as “binds”.

B4: FliF(L253R), overexpressed in E. coli (natural protein)
chain: MSATASTATQPKPLEWLNRLRANPRIPLIVAGSAAVAIVVAMVLWAKTPDYRTLFSNLSDQDGGAIVAQLTQMNIPYRFANGSGAIEVPADKVHELRLRLAQQGLPKGGAVGFELLDQEKFGISQFSEQVNYQRALEGELARTIETLGPVKSARVHLAMPKPSLFVREQKSPSASVTVTLEPGRALDEGQISAVVHLVSSAVAGLPPGNVTLVDQSGHLLTQSNTSGRDLNDAQLKFANDVESRIQRRIEAIRSPIVGNGNVHAQVTAQLDFANKEQTEEHYSPNGDASKATLRSRQLNISEQVGAGYPGGVPGALSNQPAPPNEAPIATPPTNQQNAQNTPQTSTSTNSNSAGPRSTQRNETSNYEVDRTIRHTKMNVGDIERLSVAVVVNYKTLADGKPLPLTADQMKQIEDLTREAMGFSDKRGDTLNVVNSPFSAVDNTGGELPFWQQQSFIDQLLAAGRWLLVLVVAWILWRKAVRPQLTRRVEEAKAAQEQAQVRQETEEAVEVRLSKDEQLQQRRANQRLGAEVMSQRIREMSDNDPRVVALVIRQWMSNDHE
notes: as for B3
For the molecule B4, the binding result in series [4] is listed as “binds”.

B5: FliF(V266A), overexpressed in E. coli (natural protein)
chain: MSATASTATQPKPLEWLNRLRANPRIPLIVAGSAAVAIVVAMVLWAKTPDYRTLFSNLSDQDGGAIVAQLTQMNIPYRFANGSGAIEVPADKVHELRLRLAQQGLPKGGAVGFELLDQEKFGISQFSEQVNYQRALEGELARTIETLGPVKSARVHLAMPKPSLFVREQKSPSASVTVTLEPGRALDEGQISAVVHLVSSAVAGLPPGNVTLVDQSGHLLTQSNTSGRDLNDAQLKFANDVESRIQRRIEAILSPIVGNGNVHAQATAQLDFANKEQTEEHYSPNGDASKATLRSRQLNISEQVGAGYPGGVPGALSNQPAPPNEAPIATPPTNQQNAQNTPQTSTSTNSNSAGPRSTQRNETSNYEVDRTIRHTKMNVGDIERLSVAVVVNYKTLADGKPLPLTADQMKQIEDLTREAMGFSDKRGDTLNVVNSPFSAVDNTGGELPFWQQQSFIDQLLAAGRWLLVLVVAWILWRKAVRPQLTRRVEEAKAAQEQAQVRQETEEAVEVRLSKDEQLQQRRANQRLGAEVMSQRIREMSDNDPRVVALVIRQWMSNDHE
notes: as for B3
B5: the binding result in series [4] is listed as “binds”.

B6: FliF(L253A), overexpressed in E. coli (natural protein)
chain: MSATASTATQPKPLEWLNRLRANPRIPLIVAGSAAVAIVVAMVLWAKTPDYRTLFSNLSDQDGGAIVAQLTQMNIPYRFANGSGAIEVPADKVHELRLRLAQQGLPKGGAVGFELLDQEKFGISQFSEQVNYQRALEGELARTIETLGPVKSARVHLAMPKPSLFVREQKSPSASVTVTLEPGRALDEGQISAVVHLVSSAVAGLPPGNVTLVDQSGHLLTQSNTSGRDLNDAQLKFANDVESRIQRRIEAIASPIVGNGNVHAQVTAQLDFANKEQTEEHYSPNGDASKATLRSRQLNISEQVGAGYPGGVPGALSNQPAPPNEAPIATPPTNQQNAQNTPQTSTSTNSNSAGPRSTQRNETSNYEVDRTIRHTKMNVGDIERLSVAVVVNYKTLADGKPLPLTADQMKQIEDLTREAMGFSDKRGDTLNVVNSPFSAVDNTGGELPFWQQQSFIDQLLAAGRWLLVLVVAWILWRKAVRPQLTRRVEEAKAAQEQAQVRQETEEAVEVRLSKDEQLQQRRANQRLGAEVMSQRIREMSDNDPRVVALVIRQWMSNDHE
notes: as for B3
In the case of B6, in series [4], the binding result is recorded as “binds”.

B7: FliF(V266R), overexpressed in E. coli (natural protein)
chain: MSATASTATQPKPLEWLNRLRANPRIPLIVAGSAAVAIVVAMVLWAKTPDYRTLFSNLSDQDGGAIVAQLTQMNIPYRFANGSGAIEVPADKVHELRLRLAQQGLPKGGAVGFELLDQEKFGISQFSEQVNYQRALEGELARTIETLGPVKSARVHLAMPKPSLFVREQKSPSASVTVTLEPGRALDEGQISAVVHLVSSAVAGLPPGNVTLVDQSGHLLTQSNTSGRDLNDAQLKFANDVESRIQRRIEAILSPIVGNGNVHAQRTAQLDFANKEQTEEHYSPNGDASKATLRSRQLNISEQVGAGYPGGVPGALSNQPAPPNEAPIATPPTNQQNAQNTPQTSTSTNSNSAGPRSTQRNETSNYEVDRTIRHTKMNVGDIERLSVAVVVNYKTLADGKPLPLTADQMKQIEDLTREAMGFSDKRGDTLNVVNSPFSAVDNTGGELPFWQQQSFIDQLLAAGRWLLVLVVAWILWRKAVRPQLTRRVEEAKAAQEQAQVRQETEEAVEVRLSKDEQLQQRRANQRLGAEVMSQRIREMSDNDPRVVALVIRQWMSNDHE
notes: as for B3
Consider B7, for which the binding result in series [4] is listed as “binds”.

B8: FliF(I252A), overexpressed in E. coli (natural protein)
chain: MSATASTATQPKPLEWLNRLRANPRIPLIVAGSAAVAIVVAMVLWAKTPDYRTLFSNLSDQDGGAIVAQLTQMNIPYRFANGSGAIEVPADKVHELRLRLAQQGLPKGGAVGFELLDQEKFGISQFSEQVNYQRALEGELARTIETLGPVKSARVHLAMPKPSLFVREQKSPSASVTVTLEPGRALDEGQISAVVHLVSSAVAGLPPGNVTLVDQSGHLLTQSNTSGRDLNDAQLKFANDVESRIQRRIEAALSPIVGNGNVHAQVTAQLDFANKEQTEEHYSPNGDASKATLRSRQLNISEQVGAGYPGGVPGALSNQPAPPNEAPIATPPTNQQNAQNTPQTSTSTNSNSAGPRSTQRNETSNYEVDRTIRHTKMNVGDIERLSVAVVVNYKTLADGKPLPLTADQMKQIEDLTREAMGFSDKRGDTLNVVNSPFSAVDNTGGELPFWQQQSFIDQLLAAGRWLLVLVVAWILWRKAVRPQLTRRVEEAKAAQEQAQVRQETEEAVEVRLSKDEQLQQRRANQRLGAEVMSQRIREMSDNDPRVVALVIRQWMSNDHE
notes: as for B3
As to B8, the binding result in series [4] was “binds”.

B9: FliF_(1-503) (domain or fragment)
chain: MSATASTATQPKPLEWLNRLRANPRIPLIVAGSAAVAIVVAMVLWAKTPDYRTLFSNLSDQDGGAIVAQLTQMNIPYRFANGSGAIEVPADKVHELRLRLAQQGLPKGGAVGFELLDQEKFGISQFSEQVNYQRALEGELARTIETLGPVKSARVHLAMPKPSLFVREQKSPSASVTVTLEPGRALDEGQISAVVHLVSSAVAGLPPGNVTLVDQSGHLLTQSNTSGRDLNDAQLKFANDVESRIQRRIEAILSPIVGNGNVHAQVTAQLDFANKEQTEEHYSPNGDASKATLRSRQLNISEQVGAGYPGGVPGALSNQPAPPNEAPIATPPTNQQNAQNTPQTSTSTNSNSAGPRSTQRNETSNYEVDRTIRHTKMNVGDIERLSVAVVVNYKTLADGKPLPLTADQMKQIEDLTREAMGFSDKRGDTLNVVNSPFSAVDNTGGELPFWQQQSFIDQLLAAGRWLLVLVVAWILWRKAVRPQLTRRVEEAKAAQEQAQVRQE
notes: also called C-terminally-truncated FliF fragment with 57 residues truncated; copies: 33
As to B9, the “stoichiometry N” value in series [5] is 33 -fold.
